US20220098306A1 (published 2022)
Residue numbers refer to the chain shown, from its start. Like-named read-outs stand apart in the source and are kept apart here. One block for each binder: values may come before it.

Key:
[1] = molecular target: T1, CD28 (antigen of the affinity determinations) (human, UniProt P10747 19-152)
[2] = molecular target: T2, B7H3 (antigen of the affinity statements) (human, UniProt Q5ZPR3 29-466); assay: -; monovalent KD
T2 chain: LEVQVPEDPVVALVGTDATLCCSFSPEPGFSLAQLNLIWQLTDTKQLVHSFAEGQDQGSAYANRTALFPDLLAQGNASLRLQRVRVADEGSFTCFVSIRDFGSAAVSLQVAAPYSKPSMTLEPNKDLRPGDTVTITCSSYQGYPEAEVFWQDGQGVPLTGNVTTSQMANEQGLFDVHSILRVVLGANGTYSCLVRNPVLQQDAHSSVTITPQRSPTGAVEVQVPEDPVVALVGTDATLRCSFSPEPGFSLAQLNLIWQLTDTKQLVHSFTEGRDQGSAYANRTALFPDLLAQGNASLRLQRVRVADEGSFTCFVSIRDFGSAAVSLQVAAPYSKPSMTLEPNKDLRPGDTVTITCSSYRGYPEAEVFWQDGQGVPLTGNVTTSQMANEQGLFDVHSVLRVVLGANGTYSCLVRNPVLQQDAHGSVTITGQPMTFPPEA

[3] = molecular target: T3, cynomolgus B7H3
T3 chain: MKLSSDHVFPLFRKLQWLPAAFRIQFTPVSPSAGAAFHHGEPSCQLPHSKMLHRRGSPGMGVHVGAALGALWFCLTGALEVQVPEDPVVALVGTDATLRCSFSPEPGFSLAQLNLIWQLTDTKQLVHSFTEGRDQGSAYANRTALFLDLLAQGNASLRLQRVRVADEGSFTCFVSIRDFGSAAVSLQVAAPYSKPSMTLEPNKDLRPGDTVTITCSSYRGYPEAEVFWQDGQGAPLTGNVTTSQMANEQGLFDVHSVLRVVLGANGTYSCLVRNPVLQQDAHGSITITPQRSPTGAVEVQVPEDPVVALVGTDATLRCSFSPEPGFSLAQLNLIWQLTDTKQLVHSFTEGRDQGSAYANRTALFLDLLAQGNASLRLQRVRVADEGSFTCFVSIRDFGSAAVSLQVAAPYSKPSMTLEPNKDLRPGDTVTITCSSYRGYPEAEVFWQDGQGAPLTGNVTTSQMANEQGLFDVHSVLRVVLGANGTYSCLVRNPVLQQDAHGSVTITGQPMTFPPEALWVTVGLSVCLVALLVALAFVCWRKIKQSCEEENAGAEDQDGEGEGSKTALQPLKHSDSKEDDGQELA

[4] = molecular target: T2, B7H3 (antigen of the affinity …)
[5] = molecular target: T1, CD28 (antigen of the affinity …); assay: -; Fab, 2+1 CLC

B3: H1.14_L1 (XENP31398) (antibody, V domains shown)
VH: EVQLLESGGGLVQPGGSLRLSCAASGFTFSSYYMSWVRQAPGKGLEWVSTISGSGDSTYYADSVKGRFTISRDNSKNTLYLQMNSLRAEDTAVYYCAKSGPGLRQVGFDYWGQGTLVTVSS
VL: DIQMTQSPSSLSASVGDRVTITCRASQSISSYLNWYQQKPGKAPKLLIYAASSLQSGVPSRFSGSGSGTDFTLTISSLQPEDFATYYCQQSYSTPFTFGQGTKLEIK
Kd [5]: 62.8 nM

B5: 2E4A3_H1.3_1A7_L1 (antibody, V domains shown)
VH: QVQLVQSGAEVKKPGASVKVSCKASGYIFTNHYMHWVRQAPGQGLEWMGIISPSAGSTDYAQKFQGRVTMTRDTSTSTVYMELSSLRSEDTAVYYCARGGGSSPRLDYWGQGTLVTVSS
VL: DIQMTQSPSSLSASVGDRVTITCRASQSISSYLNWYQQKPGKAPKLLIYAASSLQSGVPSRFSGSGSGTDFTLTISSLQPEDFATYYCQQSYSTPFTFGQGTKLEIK
Kd [3]: 7 nM
Kd [4]: 12 nM

B6: 2E4A3_H1.22_1A7_L1 (antibody, V domains shown)
VH: B5 VH with H32N, A55V, S57R, D59A
VL: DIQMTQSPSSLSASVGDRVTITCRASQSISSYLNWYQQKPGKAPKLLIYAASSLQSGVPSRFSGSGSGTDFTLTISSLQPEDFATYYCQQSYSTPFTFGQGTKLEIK
Kd [3]: 4.3 nM
Kd [4]: 7.6 nM

B7: 2E4A3_H1.22_L1 (antibody, V domains shown)
VH: B5 VH with H32N, A55V, S57R, D59A
VL: not shown
Kd [3]: 5.3 nM
Kd [4]: 6.1 nM

B8: 6A1_H1L1 (antibody, V domains shown)
VH: EVQLLESGGGLVQPGGSLRLSCAASGFTFSNYYMAWVRQAPGKGLEWVSSISTGGGSTYYRDSVKGRFTISRDNSKSTLYLQMNSLRAEDTAVYYCTTDLSAIAATPFAYWGQGTLVTVSS
VL: DIQMTQSPSSLSASVGDRVTITCRASQNIYTSLAWYQQKPGKAPKLLIYNAHSLQTGIPSRFSGSGSGADFTLTISSLQPEDFATYFCQQYYSGLTFGSGTKLEIK
Kd [3]: 4.2 nM
Kd [4]: 8.1 nM

B10: 3C4_H1_L1.1 (antibody, V domains shown)
VH: EVQLLESGGGLVQPGGSLRLSCAVSGFSLSSYGVIWVRQAPGKGLEYVSWVSSGGSTNYASSVKGRFTISRDTSKNTVYLQMNSLRAEDTAVYFCARGATNSGTDIWGPGTLVTVSS
VL: DIVMTQSPSSLSASVGDRVTITCRASQSINSWLSWYQQKPGKPPKLLIYGASNLASGVPSRFKGSGSGTDFTLTISSLQPEDFATYYCQNNYGIIAAGATFGGGTKVEIK
Kd [3]: 27.2 nM
Kd [4]: 29.7 nM

More lines, now with the values ahead:

Kd [1]: 370 nM
Kd [2]: 8.1 nM
B1: XENP34732 (bispecific antibody)
heavy: EVQLLESGGGLVQPGGSLRLSCAASGFTFSNYYMAWVRQAPGKGLEWVSSISTGGGSTYYRDSVKGRFTISRDNSKSTLYLQMNSLRAEDTAVYYCTTDLSAIAATPFAYWGQGTLVTVSSASTKGPSVFPLAPSSKSTSGGTAALGCLVKDYFPEPVTVSWNSGALTSGVHTFPAVLQSSGLYSLSSVVTVPSSSLGTQTYICNVNHKPSDTKVDKKVEPKSCDKTHTCPPCPAPPVAGPSVFLFPPKPKDTLMISRTPEVTCVVVDVKHEDPEVKFNWYVDGVEVHNAKTKPREEEYNSTYRVVSVLTVLHQDWLNGKEYKCKVSNKALPAPIEKTISKAKGQPREPQVYTLPPSREEMTKNQVSLTCDVSGFYPSDIAVEWESDGQPENNYKTTPPVLDSDGSFFLYSKLTVDKSRWEQGDVFSCSVLHEALHSHYTQKSLSLSPGK
scFv-Fc: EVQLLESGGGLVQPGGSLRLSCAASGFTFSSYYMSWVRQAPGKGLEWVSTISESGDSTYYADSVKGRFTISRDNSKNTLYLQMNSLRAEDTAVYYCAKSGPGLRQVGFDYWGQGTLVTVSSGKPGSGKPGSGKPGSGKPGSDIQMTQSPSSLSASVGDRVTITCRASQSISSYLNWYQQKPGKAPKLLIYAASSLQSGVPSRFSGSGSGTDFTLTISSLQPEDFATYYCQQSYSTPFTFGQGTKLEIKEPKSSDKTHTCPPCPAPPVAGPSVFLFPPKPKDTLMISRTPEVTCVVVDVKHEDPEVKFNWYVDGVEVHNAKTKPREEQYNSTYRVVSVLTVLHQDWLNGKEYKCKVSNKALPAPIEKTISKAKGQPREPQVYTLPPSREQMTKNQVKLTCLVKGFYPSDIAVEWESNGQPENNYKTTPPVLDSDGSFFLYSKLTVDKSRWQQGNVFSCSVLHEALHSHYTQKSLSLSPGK
light: DIQMTQSPSSLSASVGDRVTITCRASQNIYTSLAWYQQKPGKAPKLLIYNAHSLQTGIPSRFSGSGSGADFTLTISSLQPEDFATYFCQQYYSGLTFGSGTKLEIKRTVAAPSVFIFPPSDEQLKSGTASVVCLLNNFYPREAKVQWKVDNALQSGNSQESVTEQDSKDSTYSLSSTLTLSKADYEKHKVYACEVTHQGLSSPVTKSFNRGEC

Kd [3]: 1.4 nM
Kd [4]: 0.5 nM
B2: 38E2_H2_L1.1 (antibody, V domains shown)
VH: EVQLVESGGGLVKPGGSLRLSCAASGFSFSVGYYMCWVRQAPGKGLEWVSCIYVGSGSSGSTYYASVKGRFTISSDTAKTSVYLQMNSLRAEDTAVYFCARTAGSDWRLDLWGQGTLVTVSS
VL: DIVMTQSPSSLSASVGDRVTITCRASQSIANELSWYQQKPGKPPKLLIYRASTLTSGVPSRFKGSGSGTDFTLTISSLQPEDFATYYCQSTYNGRAIGFGGGTKVEIK

Kd [1]: 360 nM
Kd [2]: 0.5 nM
B4: XENP35153 (bispecific antibody)
heavy: EVQLLESGGGLVQPGGSLRLSCAVSGFSLSSYGVIWVRQAPGKGLEYVSWVSSGGSTNYASSVKGRFTISRDTSKNTVYLQMNSLRAEDTAVYFCARGATNSGTDIWGPGTLVTVSSASTKGPSVFPLAPSSKSTSGGTAALGCLVKDYFPEPVTVSWNSGALTSGVHTFPAVLQSSGLYSLSSVVTVPSSSLGTQTYICNVNHKPSDTKVDKKVEPKSCDKTHTCPPCPAPPVAGPSVFLFPPKPKDTLMISRTPEVTCVVVDVKHEDPEVKFNWYVDGVEVHNAKTKPREEEYNSTYRVVSVLTVLHQDWLNGKEYKCKVSNKALPAPIEKTISKAKGQPREPQVYTLPPSREEMTKNQVSLTCDVSGFYPSDIAVEWESDGQPENNYKTTPPVLDSDGSFFLYSKLTVDKSRWEQGDVFSCSVLHEALHSHYTQKSLSLSPGK
scFv-Fc: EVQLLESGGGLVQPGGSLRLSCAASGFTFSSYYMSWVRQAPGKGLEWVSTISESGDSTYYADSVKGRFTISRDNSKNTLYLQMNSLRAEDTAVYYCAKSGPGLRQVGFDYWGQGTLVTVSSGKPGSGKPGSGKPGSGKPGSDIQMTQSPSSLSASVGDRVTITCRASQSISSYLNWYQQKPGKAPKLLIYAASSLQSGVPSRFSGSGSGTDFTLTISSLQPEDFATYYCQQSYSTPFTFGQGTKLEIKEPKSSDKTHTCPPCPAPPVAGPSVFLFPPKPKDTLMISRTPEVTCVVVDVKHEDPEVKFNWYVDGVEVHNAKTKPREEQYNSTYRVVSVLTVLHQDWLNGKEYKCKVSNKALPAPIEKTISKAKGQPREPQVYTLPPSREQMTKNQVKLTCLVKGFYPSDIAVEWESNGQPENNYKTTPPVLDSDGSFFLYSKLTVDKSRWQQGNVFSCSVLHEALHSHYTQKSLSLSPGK
light: DIVMTQSPSSLSASVGDRVTITCRASQSINSWLSWYQQKPGKPPKLLIYGASNLASGVPSRFKGSGSGTDFTLTISSLQPEDFATYYCQNNYGIIAAGATFGGGTKVEIKRTVAAPSVFIFPPSDEQLKSGTASVVCLLNNFYPREAKVQWKVDNALQSGNSQESVTEQDSKDSTYSLSSTLTLSKADYEKHKVYACEVTHQGLSSPVTKSFNRGEC

Kd [1]: 63 nM
Kd [2]: 7.6 nM
B9: XENP34398 (bispecific antibody)
heavy 1: EVQLLESGGGLVQPGGSLRLSCAASGFTFSSYYMSWVRQAPGKGLEWVSTISESGDSTYYADSVKGRFTISRDNSKNTLYLQMNSLRAEDTAVYYCAKSGPGLRQVGFDYWGQGTLVTVSSASTKGPSVFPLAPSSKSTSGGTAALGCLVKDYFPEPVTVSWNSGALTSGVHTFPAVLQSSGLYSLSSVVTVPSSSLGTQTYICNVNHKPSDTKVDKKVEPKSCDKTHTCPPCPAPPVAGPSVFLFPPKPKDTLMISRTPEVTCVVVDVKHEDPEVKFNWYVDGVEVHNAKTKPREEEYNSTYRVVSVLTVLHQDWLNGKEYKCKVSNKALPAPIEKTISKAKGQPREPQVYTLPPSREEMTKNQVSLTCDVSGFYPSDIAVEWESDGQPENNYKTTPPVLDSDGSFFLYSKLTVDKSRWEQGDVFSCSVLHEALHSHYTQKSLSLSPGK
heavy 2: QVQLVQSGAEVKKPGASVKVSCKASGYIFTNNYMHWVRQAPGQGLEWMGIISPSVGRTAYAQKFQGRVTMTRDTSTSTVYMELSSLRSEDTAVYYCARGGGSSPRLDYWGQGTLVTVSSASTKGPSVFPLAPSSKSTSGGTAALGCLVKDYFPEPVTVSWNSGALTSGVHTFPAVLQSSGLYSLSSVVTVPSSSLGTQTYICNVNHKPSNTKVDKKVEPKSCGKPGSGKPGSQVQLVQSGAEVKKPGASVKVSCKASGYIFTNNYMHWVRQAPGQGLEWMGIISPSVGRTAYAQKFQGRVTMTRDTSTSTVYMELSSLRSEDTAVYYCARGGGSSPRLDYWGQGTLVTVSSASTKGPSVFPLAPSSKSTSGGTAALGCLVKDYFPEPVTVSWNSGALTSGVHTFPAVLQSSGLYSLSSVVTVPSSSLGTQTYICNVNHKPSNTKVDKKVEPKSCDKTHTCPPCPAPPVAGPSVFLFPPKPKDTLMISRTPEVTCVVVDVKHEDPEVKFNWYVDGVEVHNAKTKPREEQYNSTYRVVSVLTVLHQDWLNGKEYKCKVSNKALPAPIEKTISKAKGQPREPQVYTLPPSREQMTKNQVKLTCLVKGFYPSDIAVEWESNGQPENNYKTTPPVLDSDGSFFLYSKLTVDKSRWQQGNVFSCSVLHEALHSHYTQKSLSLSPGK
light: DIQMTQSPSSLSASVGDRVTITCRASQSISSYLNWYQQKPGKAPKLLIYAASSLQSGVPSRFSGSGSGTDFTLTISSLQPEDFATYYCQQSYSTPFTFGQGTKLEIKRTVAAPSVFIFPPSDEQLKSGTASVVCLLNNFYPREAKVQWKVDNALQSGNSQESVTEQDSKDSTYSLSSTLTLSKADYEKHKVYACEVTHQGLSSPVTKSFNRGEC
